Source: the supplement of paper PMC12636428

System: Saccharomyces cerevisiae
Test: transcriptional activation domain activity (GFP:mCherry ratio, weighted mean of sorted bins, harmonized to initial dataset scale) (arbitrary fluorescence ratio units); higher = stronger transcriptional activation
Details: beta-estradiol 1 µM; induction time 4 h
Method: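 53-aa protein tiles (fungal proteins plus yeast TF control tiles) fused C-terminally to a DBD-estrogen-binding domain-mCherry synthetic TF, integrated in S. cerevisiae (URA3 locus) with a GFP reporter. Cells were induced with 1 uM beta-estradiol for 4 h at 30 C, FACS-sorted into 8 bins by GFP:mCherry ratio and barcodes sequenced. Activity is the read-weighted mean bin fluorescence (GFP:mCherry), averaged over barcodes (median 12); tiles under 50 reads were discarded. New active-learning values were harmonized by linear fit onto the scale of the initial (Hummel et al.) dataset. The assay saturates at low and high signal.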

Sequence	transcriptional activation domain activity
DIDMEDVDGDAAPSAKKAKASKKRKKDAESDGEQEKACLSFRTILLHSLIFIQ	41900
DIEQQVRFRLTQIYFLILKLDAFFHFVLCVFYAVVMTQEKYYTLWGVIDRKFI	79400
DIETLLVYDYYPKPLLDIDLTIRGRHIYLPIEKTWLRYVPKPPWYLLVLLFAG	60500
DIFGQMKDFTERCHMYLDGNITLPISLHQKLVEIFSHLLCLIGMITRDMKRGW	32500
DIIPDHYKHKPISLYDPRKAPLLNQYRLIVPRSRNIIEVCQFIILLLLYCLSM	78100
DINSFTNQQQQAQDNPSFLPLDIEQSSYDLSEDAMSYPIISTQSNRDCTQYDN	68700
DIPGLAPTYLDNQAFLMADTVDIPGDYNLFFDNFDISNFFLPATVYDSELPVS	137000
DISKLAIETFYFFFLFLLSFLFSFLFFSFLFLIFFNFLYSSFFLSFFLSFFLF	33900
DKATMRRAFFERIVTERINIMGKMSISLIHSLIVDCMFLSTARSFLWLLWAYV	56300
DKDEDAGAVEGEGGVVNANGKKTSGDEAGGERKKKQKQKEREKGGEDGAGKKG	47700
DKEAKADVEEKPKTPRGRKRKTAEEVNGEEAQTEKEPPVKKTKPASKAKPASK	42600
DKEKMEDGLIRVRLYFFTKLAGKPFYPTLLWSCLHSLTLKRLVALLRKSQLSA	68900
DKKEAKPVNGESSKDTKPSGKEKEKELKDNAKPKEAKKGEGNKGGLAKAAAAP	25800
DKKNVDINEFLLDESVSNLFTTRQIDLFKKNVNLYSPLFQNQKDAVSSTSLTP	81800
DKNYNNLTVYNFVYLFGGRVHLYKNLTFHVVVTYVCVISSIVFFLVFIAKWYW	52100
DKPIAAKKPSAQRKRKVKLESDADSSGDDQPIVKKPAAKKPRASKAKKEEPAS	23100
DKPKTKPAAAKAKPKSATTKAKPASKASAKPSSKAGAKKPASKKATAAAAAKK	12000
DKQLDYEFIDKSGIIPSDNQSHPRISNIHDNAIDMVTLKNGEEVAISWYDISH	59800
DKRLENAQTLIPDGMKVRPMEDCITEAPTLIMARFNIVLLYLKTRVVLHRNYL	62400
DKSSGEEGSRKKRKRVSDNGEEDKELEKSKSKDRKKKGKRRDPAEDGAERPAT	41400
DLAPVQPVQKQARRRSGPACEGCKARKTKCDGKRPTCGSCVDKRHCVYADASV	21900
DLARSQKFILCSIKHWGSYLFLFFSCRSFNLFFNHSYFSFCLNISFFLCSVFL	77800
DLASPSDNDIDEARSREIAAKAVTGILVLLLKWLKLSHILKFEYLTQLLLDSN	64400
DLCFWLLDVCVLFSPGSCRLHQLSDKYFVEQLVLMNVFLIQVLLKFVFPLGRA	74800
DLDFRGIFMTDWYANYDYMVSDLIMPGFWRVPVLPKWYNWTGFFASWPLIGQF	68800
DLDILLAKLLEELEDSLQALKRLVVSAFLRFLTGVLYEEFMEAIRPNPHMDNE	58200
DLDNDIDFETAYQMLSSNFDDQMSAHIHENTFSATSPPLLTHELGIIPNVATV	95500

Sequence	transcriptional activation domain activity
DLEELRHLCHALKATFTHVLSIPVCSYFYFPQTSFAMILHSIMIICRWVKLST	35100
DLFMTLGWISGFMAELIAVQGACSLGWHPGCTNFNWLMAWLFFLFLSWGAGFF	66400
DLFVSLMANSLTKLGFVPGATVDMKKLTIDIVELIFRWERRRMTGSPSIKPAD	45200
DLHLICNMVNGSTTFHSGESWTPVCLPRFNSKGFLHAYVCFVAKETCLVLISP	30300
DLIQTKQLQNALLTHPRRNTLTGLQFTMQNVLDLLKYILTMILYRPSQFRWAA	82500
DLLAHCKRELVHAIWTLLLDDVFLHAYKYGMVVRCADGVEQRIYPRIFTYSAD	41200
DLLDQMILGLLRYCEADILVPKLRLLGATDRARMELLDAYSCKVWLLLLMFVT	56500
DLLEDDGQPSSATQKSMKRANRKRQSQKNRIVHLLNRTRRALGVSRAALILLL	57500
DLLFNVAAFVFVGAWTPFNQFSDPALSLSVWRLIVIAILVLLLRRLPAIIALY	27800
DLLLEGYDTNRLLVVIPFTCKVLEQAAKSMVFKPPNPWLMAIVKLLAELYLYA	73900
DLLVLLRKCREVALRIIQKESCFNVLNLRRELVSNLLLSFWVVGQSLTTKVPM	33000
DLMMVVFGVLLSSLFFVFVFVWYCYLLLSCFLSFFLSLVVSWCWLGLHIHVYS	43500
DLPVRLVELPNLLVTDIQQNAYLLDSALRVKLDAKGRAFLDSILLRVLQWLWT	48200
DLQRHLLKDHVSQDFKHPMEPLACNWEDCDFLGDDTCSIVNHINCQHGINFDI	53200
DLQTYVLCLLLLYIARDFVDCLWNLFSTIAILCLVTWVTPMFLIAVFPIGLVY	53700
DLSKATKEVKEGGERKAAKGERETEQEKVEEGVKKLAVVDKKGGKNKTETNGS	17700
DLVFGIIIVRSLLIPVVLVFFFTFACFHIYLSHTSFFPAFYSSILGFHPLAFS	73300
DLYNHSYRLHRRKRPGMKEVYLSAMGFRMMGVKGFREWSFLWRVRLAAAPWWA	52600
DMDEEEGGAPAKPVGACARCKNLKVKCEFKTETDPCKRCFNGRHDCVTPGRKK	28500
DMKDRGLFQCNPYRYAKECCRFVGLFYTAIWLVLRGTHIGHYVISATCLAVLW	68200
DMLISFGLDHPSNREDDLDKLCNMTRDVQAIFSQYLKGEESKRSLEDFLSTSN	67500
DNAHVLQEYLAVFRHLLSYHDPKLSSHMETIGFMPDLYAIPWFLTLFTHVFPL	58600
DNAQANAGGARGRRDDGAGTSKEDGEEEGAYEGDSEEDKKKRRKGRSKRRGGD	48100
DNDDDGETAAGGRLAHLLQILVCNAIYSFEPLLNCSQDVNNVLVVVTRYYGGI	57500
DNDYNLDDTNNDNTNSMQSILEDFVSSEEALKFMPDAGRDARRYSEVVTSSFP	89300
DNESDAEPQQEKSKSQSRRRQSRGRGRRGADSGAESDARSDVSQSGGRRNRQR	44200
DNLDLASLDPLEQSPSISMEPVSINETGSAYTTTNTALNDIDIPFSINELNEL	64900

Sequence	transcriptional activation domain activity
DNLLGMDYYNIDDLLTQELRDLDIPLVPSPKTGDGSSDKKNIDRTWNLGDENN	79900
DNMDSDFLSRTPNYNAFSLEATSHNPADNANELGSQSNRETNSPSVFYPQANT	22500
DNMHVPGRFKDPNFLFYIQTMISSYALPFVRKAAILMHVRYGVELPSIPFECV	75400
DNMSLLNLPILEETVSSGQDDKVEPDEEDIWNYLPSSSSQQEDSSRALKKNTN	20900
DNPEQLMKVFLSRNLISTGVIYSEHKCNMMVRLVWLFLCFLHRKSVLPEIRGL	59500
DNPSFLPLDIEQSSYDLSEDAMSYPIISTQSNRDCTQYDNTKISQILQSQLNP	63900
DNTPVLQEYLAVFRHLLSFHDPELSSHLDTIGFMPDLYAIPWFLTLFTHVFPL	64500
DNYILNNENDDGLDNLLGMDYYNIDDLLTQELRDLDIPLVPSPKTGDGSSDKK	109000
DPDASSFSGTVLDKAGSIARLSEDEQGGERAAKRRRLNKKVGMEAIAGLVGEY	40800
DPEEVQGGKQRAEGNQGGGGRQGRRGPRGAEGQDHPGVQRPHRRPRRGHQAHL	33200
DPFVEQNNDITTALLNNELFQGPSLSDEVTDWFGASEDIGLEFVEPWTELIEQ	144000
DPIRYLSTMDLGYCVGDKIIGSVLCYKQPIVLLILMYFTDQILFFLDTYLWYI	40600
DPNSPLDGDVDELRSREIAAKAVTGTLILLLKWLKLSHVLKFEYVTQLLLDLN	57100
DPPKRGRGRPKGSKNKKSTGVAAAAPAPAAGPSTGEKRKRGRPPKPKPEGEAG	43800
DPPPHPSCPPGSLIIKMVVYLRRRRLLVTWCEDPSVPEVRCLVVATQSQWVPM	55300
DPQTLSVAHRSYLRCLTQRLLLTQPTFTECMYNLLIHTDHLVALIHRLDGVWS	38400
DPTKSVSAYWVPGGDYISPALQILMNEYLLSFCPTITLPQSLILVSKYFGFLL	60700
DPTSRAPTAVRVRVKHSSGEEQEEEERLPADGVVICAGPWTGRVARRLLGEKV	37200
DPYDWSTYSNLIDEERIFVPEVQSSDHINDKFLTVANVTGEGSEGLIMQWLSC	133000
DQCDITPEMRKEYNIDGADKANNPELAMDWLLVHLLFRTLQLLPNMFRAWLFN	56200
DQDAVMEDAPEANAETESQNSRRRRSRGKGRKSGASMAENVKVEQQAEAGSEN	29300
DQGLTDCGDVRHTKVVSLSYHFSPDYNDPTIIPVVTRWCTEIGKLTLTGITFV	62400
DQIYIYQTPRWLCYECLVAMFTMFTIRLVYFWSLHVLNHLLTYKTFLFFFLSC	47400
DQKLPNPDDFANFEARIKLLSYDDRLSFYQRYCLKINMQVYYYVLSYILMLTS	53300
DQKPIIDQKPLALLLEKLTVSEPPRGGTLGPAWMRERLEASGQMALWKRIVEK	34100
